Patent US7164008B2, “Isolated complexes of endotoxin and MD-2” (priority 2003, dated 2007)

Assays:
TLR4 = molecular target: T1, TLR4 (Homo sapiens, UniProt O00206+Q9Y6Y9); experiment: Cell association of [^3H]-LOS forms with HEK/TLR4 cells (liquid scintillation); format: cell-based; conditions: [^3H]-LOS-MD-2 0.75 ng/ml, HEK/TLR4 overnight
T1 construct: host or cells: HEK293 stably transfected with TLR4 (HEK/TLR4)
Protocol: FIG. 3 depicts delivery of [^3H]-LOS-MD-2 but not [^3H]-LOSagg or [^3H]-LOS-sCD14 to HEK/TLR4. HEK (□) or HEK/TLR4 (▪) cells were incubated with [^3H]-LOS (0.75 ng/ml) in the form of LOSagg, LOS-sCD14, or LOS-MD-2. After overnight incubation at 37° C., cells were washed and lysed as described in Methods. The amount of [^3H]-LOS associated with the cells was measured by liquid scintillation spectroscopy. Results are from one experiment in duplicate, representative of three similar experiments.
FIG. 4 depicts the effects of added MD-2 on activation of HEK/TLR4 by [^3H]-LOS-MD-2 and delivery of [^3H]-LOS-MD-2 to HEK/TLR4. […] After overnight incubation, extracellular accumulation of IL-8 was measured. […] Column fractions were analyzed for [^14C]-LOS by liquid scintillation spectroscopy. […] The amount of radioactivity associated with the cells was determined by liquid scintillation spectroscopy. No radioactivity was associated with parental cells.
HEK or HEK/TLR4 cells were grown to confluency in 6 well plates, washed twice with warm PBS, and [^3H]-LOS aggregates or [^3H]-LOS-protein complexes+/−indicated supplements were incubated overnight at 37° C., 5% CO2, and 95% humidity in DMEM, 0.1% HSA with the supplements indicated in the legends to FIGS. 3 and 4. […] The amount of radioactivity associated with the cells was determined by liquid scintillation spectroscopy. Total recovery of radioactivity was >90%.

human airway epithelia = experiment: Endotoxin responsiveness of primary human airway epithelia (HBD-2 mRNA real time PCR, NF-κB-luciferase); format: cell-based; conditions: N. meningitidis LOS-sCD14 5 ng LOS/ml, 24 hr, HBD-2 real time PCR
Protocol: FIG. 6 depicts endotoxin responsiveness of well-differentiated primary cultures of human airway epithelia. Polarized epithelia were treated with NTHi LOS (100 ng/ml), sCD14 (100 ng/ml) and LBP (250 ng/ml) by apical application in a 50 μl volume. Twenty-four hours later, epithelia were harvested and analyzed for HBD-2 mRNA expression by real time PCR. As depicted in FIG. 6A, apical stimulation of airway epithelia with NTHi LOS induced little change in HBD-2 MRNA expression (2 epithelia/trial, n=3 different donors, * indicates p<0.05). In contrast, IL-1β markedly induces HBD-2 mRNA. FIG. 6B depicts the polarity of epithelial responses to IL-1β and NTHi LOS. […]
FIG. 9 depicts the effects of MD-2 complementation on endotoxin responsiveness in human airway epithelia. […] Fold increase in HBD-2 mRNA expression were quantified by real time PCR. […] NF-κB-luciferase activity was measured 24 hr following endotoxin treatment (n=5 epithelia/condition, * indicates p<0.05). […] 24 hr after endotoxin treatment, HBD-2 expression was quantified by real time PCR. […]
Well differentiated human airway epithelia were treated with N. meningitidis LOS-sCD14 (5 ng LOS/ml), with or without the addition of cell culture supernatants containing rMD-2. […] HBD-2 expression was quantified by real time PCR. […]
Real-time PCR was employed to detect human β-defensin-2 and MD-2 and to quantify changes in expression. […]

T1 sequence (O00206 24-839, one chain of several): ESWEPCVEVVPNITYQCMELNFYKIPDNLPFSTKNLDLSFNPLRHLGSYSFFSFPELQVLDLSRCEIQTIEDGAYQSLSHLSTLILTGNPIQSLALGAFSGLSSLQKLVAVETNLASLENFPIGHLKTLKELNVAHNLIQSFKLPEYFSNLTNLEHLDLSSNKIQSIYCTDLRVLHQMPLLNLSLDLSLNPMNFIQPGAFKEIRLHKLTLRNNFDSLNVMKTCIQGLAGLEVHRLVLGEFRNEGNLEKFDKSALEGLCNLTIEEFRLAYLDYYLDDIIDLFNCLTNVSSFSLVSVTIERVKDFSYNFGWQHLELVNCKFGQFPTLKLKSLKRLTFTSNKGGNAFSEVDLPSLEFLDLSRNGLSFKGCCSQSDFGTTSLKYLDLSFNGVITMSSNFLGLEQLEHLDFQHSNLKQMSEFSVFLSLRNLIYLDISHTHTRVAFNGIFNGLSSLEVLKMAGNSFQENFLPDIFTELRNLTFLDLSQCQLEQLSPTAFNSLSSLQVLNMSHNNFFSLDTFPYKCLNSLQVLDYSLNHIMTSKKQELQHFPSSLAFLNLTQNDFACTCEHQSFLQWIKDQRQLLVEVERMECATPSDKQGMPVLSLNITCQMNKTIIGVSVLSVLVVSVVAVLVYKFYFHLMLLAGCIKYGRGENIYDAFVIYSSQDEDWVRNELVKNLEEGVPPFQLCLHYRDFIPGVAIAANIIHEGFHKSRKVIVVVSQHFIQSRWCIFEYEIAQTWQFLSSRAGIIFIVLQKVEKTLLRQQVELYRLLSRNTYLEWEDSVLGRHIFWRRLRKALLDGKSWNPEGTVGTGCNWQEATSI

B1: wt MD-2: soluble polyhistidine-tagged recombinant wild-type MD-2 in conditioned insect cell culture medium (protein)
chain: QKQYWVCNSSDASISYTYCDKMQYPISINVNPCIELKRSKGLLHIFYIPRRDLKQLYFNLYITVNTMNLPKRKEVICRGSDDDYSFCRALKGETVNTTISFSFKGIKFSKGKYKCVVEAISGSPEEMLFCLEFVILHQPNSNHHHHHH
effect of excess MD-2 on TLR4-dependent cell association of [^3H]-LOS-MD-2 (TLR4): blocked | increase of response of human airway epithelial cultures to LOS-sCD14 (human airway epithelia): ≥ 100 fold
